In patent publication US11653679B2, “High-purity steviol glycosides” (PureCircle Sdn Bhd, priority 2014, dated 2023):

Experiments:
Type in all cases: biochemical
[1] = Activity of in-vivo produced enzymes for transformation of Rebaudioside A (Example 22); settings: for Conversion after 45 hrs.: 0.5 mM, in-vivo produced enzyme lysate; for Reb D selectivity: after 45 hrs.
Procedure: Activity tests were performed at 5 mL scale with 1,000 μL of thawed lysate for the transformation of Rebaudioside A using 0.5 mM of substrate, 2.5 mM of UDP-Glucose and 3 mM MgCl2 in 50 mM Sodium Phosphate buffer at pH 7.2. Samples were taken and analyzed by HPLC.
(§1) The HPLC assay was performed as described in EXAMPLE 20.

[2] = Catalytic test Rebaudioside A to Rebaudioside D with in-vitro expressed UDP-glucosyltransferases (Examples 20, 21), HPLC; settings: for Steviol glycoside conversion in reaction mixture, Reb A / Steviol glycoside conversion in reaction mixture, Reb D / Steviol glycoside conversion in reaction mixture, Reb UNK (later identified as reb D2): 0.5 mM Rebaudioside A, 30° C., HPLC; for Conversion RebA to RebD: in-vitro expressed enzyme
Procedure: The prepared expression medium mix was added to the plasmid solution and the solution was allowed to incubate at 30° C. for 3 hours while mixing the mixture every 45 minutes. 5 μL of the mixture was frozen whereas the remainder was used for the catalytic test for the conversion of Rebaudioside A to Rebaudioside D.
(§2) 430 μL of a reaction mixture containing 0.5 mM Rebaudioside A, 3 mM MgCl2, 50 mM phosphate buffer (pH7.2) and 2.5 mM UDP-glucose was added to a 1.5 mL sterile microtube. 52 μl of the enzyme expression medium was added and the resulting mixture was allowed to react at 30° C. for 24 hours. 125 μL samples were taken after 2 hours, 16 hours and 24 hours and added to a 115 μL of 60% methanol and 10 μL of 2 N H2SO4. The quenched sample was centrifuged at 18,000 g for 2 minutes at RT. 200 μL was transferred to an HPLC vial and analyzed.
The HPLC assay was performed as follows:
as §2, with “μL” for “μl”, “to” for “to an”
as §1

[3] = Transformation of Stevioside to Rebaudioside A with UGT76G1 lysate (Examples 4, 13), HPLC; settings: per mL of lysate; 1 U transforms 1 μmol in 1 hour at 30° C. and pH 7.2
Procedure: The total volume of the reaction was 5.0 mL with the following composition: 50 mM sodium phosphate buffer pH 7.2, 3 mM MgCl2, 2.5 mM UDP-glucose, 0.5 mM Stevioside and 500 μl, of UGT76G1 thawed lysate. The reactions were run at 30° C. on an orbitary shaker at 135 rpm. For each sample, 460 μL of the reaction mixture was quenched with 40 μL of 2N H2SO4 and 420 μL of methanol/water (6/4). The samples were immediately centrifuged and kept at 10° C. before analysis by HPLC (CAD).
(§3) Activity tests were performed on a 5 mL scale with 500 μL of thawed lysate for the transformation of Stevioside to Rebaudioside A and Rebaudioside D to Rebaudioside M using 0.5 mM of substrate, 2.5 mM of UDP-Glucose and 3 mM MgCl2 in 50 mM Sodium Phosphate buffer at pH 7.2. Samples were taken and analyzed by HPLC.

[4] = Transformation of Rebaudioside D to Rebaudioside M with UGT76G1 (Examples 6, 13), HPLC; settings: per mL of lysate; 1 U transforms 1 μmol in 1 hour at 30° C. and pH 7.2
Procedure: The total volume of the reaction was 2 mL with the following composition: 50 mM sodium phosphate buffer pH 7.2, 3 mM MgCl2, 3.8 mM UDP-glucose, 0.5 mM Rebaudioside D and 180 μL of in-vitro produced UGT76G1. The reactions were run at 30° C. on an orbitary shaker at 135 rpm. For each sample, 400 μL of reaction mixture was quenched with 40 μL of 2N H2SO4 and 360 μL of 60% MeOH. After centrifugation, the supernatant was analyzed by HPLC (CAD).
as §3

B1: gi297795735_XP_002865752.1: UDP-glucoronosyl/UDP-glucosyl transferase family protein [Arabidopsis lyrata subsp. lyrata], SEQ ID NO:7 (protein, listed as Arabidopsis lyrata)
chain: MDDKKEEVMHIAMFPWLAMGHLLPFLRLSKLLAQKGHKISFISTPRNILRLPKLPSNLSSSITFVSFPLPSISGLPPSSESSMDVPYNKQQSLKAAFDLLQPPLTEFLRLSSPDWIIYDYASHWLPSIAKELGISKAFFSLFNAATLCFMGPSSSLIEESRSTPEDFTVVPPWVPFKSTIVFRYHEVSRYVEKTDEDVTGVSDSVRFGYTIDGSDAVFVRSCPEFEPEWFSLLQDLYRKPVFPIGFLPPVIEDDDDDTTWVRIKEWLDKQRVNSVVYVSLGTEASLRREELTELALGLEKSETPFFWVLRNEPQIPDGFEERVKGRGMVHVGWVPQVKILSHESVGGFLTHCGWNSVVEGIGFGKVPIFLPVLNEQGLNTRLLQGKGLGVEVLRDERDGSFGSDSVADSVRLVMIDDAGEEIREKVKLMKGLFGNMDENIRYVDELVGFMRNDESSQLKEEEEEDDCSDDQSSEVSSETDEKELNLDLKEEKRRISVYKSLSSEFDDYVANEKMG
Question: With B1 as the molecule, how does the “Conversion after 45 hrs.” value [1] read?
Answer: 0.0%

Question: And the “Reb D selectivity” value [1]?
Answer: Reb D Not detected

Question: What about the “Steviol glycoside conversion in reaction mixture, Reb A” value (shortened to “Steviol glycoside conversion … Reb A”) [2] of the same molecule?
Answer: 95.8 % area

Question: And the “Steviol glycoside conversion in reaction mixture, Reb D” value [2]?
Answer: 0.28 % area

Question: And the “Steviol glycoside conversion in reaction mixture, Reb UNK (later identified as reb D2)” value [2]?
Answer: 3.9 % area

Question: And the “Conversion RebA to RebD” value [2]?
Answer: Active

B2: EUGT11: putative UDP-glucoronosyl and UDP-glucosyl transferase [Oryza sativa Japonica Group], from WO/2013/022989A2, SEQ ID NO:8 (protein, listed as Oryza sativa)
chain: MHVVICPLLAFGHLLPCLDLAQRLACGHRVSFVSTPRNISRLPPVRPSLAPLVSFVALPLPRVEGLPNGAESTHNVPHDRPDMVELHLRAFDGLAAPFSEFLGTACADWVMPTSSAPRQTLSSNIHRNSSRPGTPAPSGRLLCPITPHSNTLERAAEKLVRSSRQNARARSLLAFTSPPLPYRDVFRSLLGLQMGRKQLNIAHETNGRRTGTLPLNLCRWMWKQRRCGKLRPSDVEFNTSRSNEAISPIGASLVNLQSIQSPNPRAVLPIASSGVRAVFIGRARTSTPTPPHAKPARSAAPRAHRPPSSVMDSGYSSSYAAAAGMHVVICPWLAFGHLLPCLDLAQRLASRGHRVSFVSTPRNISRLPPVRPALAPLVAFVALPLPRVEGLPDGAESTNDVPHDRPDMVELHRRAFDGLAAPFSEFLGTACADWVIVDVFHHWAAAAALEHKVPCAMMLLGSAHMIASIADRRLERAETESPAAAGQGRPAAAPTFEVARMKLIRTKGSSGMSLAERFSLTLSRSSLVVGRSCVEFEPETVPLLSTLRGKPITFLGLMPPLHEGRREDGEDATVRWLDAQPAKSVVYVALGSEVPLGVEKVHELALGLELAGTRFLWALRKPTGVSDADLLPAGFEERTRGRGVVATRWVPQMSILAHAAVGAFLTHCGWNSTIEGLMFGHPLIMLPIFGDQGPNARLIEAKNAGLQVARNDGDGSFDREGVAAAIRAVAVEEESSKVFQAKAKKLQEIVADMACHERYIDGFIQQLRSYKD
Question: With B2 as the molecule, how does the “Conversion RebA to RebD” value [2] read?
Answer: Active

B3: gi187373030_ACD03249.1: UDP-glycosyltransferase [Avena strigosa], SEQ ID NO:4 (protein, listed as Avena strigosa)
chain: MAVKDEQQSPLHILLFPFLAPGHLIPIADMAALFASRGVRCTILTTPVNAAIIRSAVDRANDAFRGSDCPAIDISVVPFPDVGLPPGVENGNALTSPADRLKFFQAVAELREPFDRFLADNHPDAVVSDSFFHWSTDAAAEHGVPRLGFLGSSMFAGSCNESTLHNNPLETAADDPDALVSLPGLPHRVELRRSQMMDPKKRPDHWALLESVNAADQKSFGEVFNSFHELEPDYVEHYQTTLGRRTWLVGPVALASKDMAGRGSTSARSPDADSCLRWLDTKQPGSVVYVSFGTLIRFSPAELHELARGLDLSGKNFVWVLGRAGPDSSEWMPQGFADLITPRGDRGFIIRGWAPQMLILNHRALGGFVTHCGWNSTLESVSAGVPMVTWPRFADQFQNEKLIVEVLKVGVSIGAKDYGSGIENHDVIRGEVIAESIGKLMGSSEESDAIQRKAKDLGAEARSAVENGGSSYNDVGRLMDELMARRSSVKVGEDIIPTNDGL
Question: With B3 as the molecule, how does the “Conversion after 45 hrs.” value [1] read?
Answer: 0.8%

Question: And the “Reb D selectivity” value [1]?
Answer: 100%

Question: And the “Steviol glycoside conversion … Reb A” value [2]?
Answer: 99.4 % area

Question: And the “Steviol glycoside conversion in reaction mixture, Reb D” value [2]?
Answer: 0.6 % area

Question: What about the “Conversion RebA to RebD” value [2] of the same molecule?
Answer: Active

B4: Example 12: UGT76G1 lysate prepared by pCOLDIII plasmid and Origami2 (DE3) expression strain (protein, UniProt Q6VAB4 1-458, looked up)
UDP-glycosyltransferase 76G1: MENKTETTVRRRRRIILFPVPFQGHINPILQLANVLYSKGFSITIFHTNFNKPKTSNYPHFTFRFILDNDPQDERISNLPTHGPLAGMRIPIINEHGADELRRELELLMLASEEDEEVSCLITDALWYFAQSVADSLNLRRLVLMTSSLFNFHAHVSLPQFDELGYLDPDDKTRLEEQASGFPMLKVKDIKSAYSNWQILKEILGKMIKQTKASSGVIWNSFKELEESELETVIREIPAPSFLIPLPKHLTASSSSLLDHDRTVFQWLDQQPPSSVLYVSFGSTSEVDEKDFLEIARGLVDSKQSFLWVVRPGFVKGSTWVEPLPDGFLGERGRIVKWVPQQEVLAHGAIGAFWTHSGWNSTLESVCEGVPMIFSDFGLDQPLNARYMSDVLKVGVYLENGWERGEIANAIRRVMVDEEGEYIRQNARVLKQKADVSLMKGGSSYESLESLVSYISSL
modifications: E. coli lysate, pCOLDIII
notes: UGT76G1 lysate prepared by pCOLDIII plasmid and Origami2 (DE3) expression strain
Question: With B4 as the molecule, how does the “Transformation activity Stevioside to Rebaudioside A” value [3] read?
Answer: 37 U mL^−1

Question: And the “Transformation activity Rebaudioside D to Rebaudioside M” value [4]?
Answer: 0.20 U mL^−1

B5: gi115454819_NP_001051010.1: Os03g0702500 [Oryza sativa Japonica Group], SEQ ID NO:3 (protein, listed as Oryza sativa)
chain: MDDAHSSQSPLHVVIFPWLAFGHLLPCLDLAERLAARGHRVSFVSTPRNLARLPPVRPELAELVDLVALPLPRVDGLPDGAEATSDVPFDKFELHRKAFDGLAAPFSAFLDTACAGGKRPDWVLADLMHHWVALASQERGVPCAMILPCSAAVVASSAPPTESSADQREAIVRSMGTAAPSFEAKRATEEFATEGASGVSIMTRYSLTLQRSKLVAMRSCPELEPGAFTILTRFYGKPVVPFGLLPPRPDGARGVSKNGKHDAIMQWLDAQPAKSVVYVALGSEAPMSADLLRELAHGLDLAGTRFLWAMRKPAGVDADSVLPAGFLGRTGERGLVTTRWAPQVSILAHAAVCAFLTHCGWGSVVEGLQFGHPLIMLPILGDQGPNARILEGRKLGVAVPRNDEDGSFDRGGVAGAVRAVVVEEEGKTFFANARKLQEIVADREREERCIDEFVQHLTSWNELKNNSDGQYP
Question: With B5 as the molecule, how does the “Conversion after 45 hrs.” value [1] read?
Answer: 1.1%

Question: What about the “Reb D selectivity” value [1] of the same molecule?
Answer: 100%

Question: And the “Steviol glycoside conversion … Reb A” value [2]?
Answer: 96.7 % area

Question: What about the “Steviol glycoside conversion in reaction mixture, Reb D” value [2] of the same molecule?
Answer: 2.1 % area

Question: What about the “Conversion RebA to RebD” value [2] of the same molecule?
Answer: Active

B6: gi222619587_EEE55719.1: hypothetical protein OsJ_04191 [Oryza sativa Japonica Group], SEQ ID NO:6 (protein, listed as Oryza sativa)
chain: MHVVMLPWLAFGHILPFAEFAKRVARQGHRVTLFSTPRNTRRLIDVPPSLAGRIRVVDIPLPRVEHLPEHAEATIDLPSNDLRPYLRRAYDEAFSRELSRLLQETGPSRPDWVLADYAAYWAPAAASRHGVPCAFLSLFGAAALCFFGPAETLQGRGPYAKTEPAHLTAVPEYVPFPTTVAFRGNEARELFKPSLIPDESGVSESYRFSQSIEGCQLVAVRSNQEFEPEWLELLGELYQKPVIPIGMFPPPPPQDVAGHEETLRWLDRQEPNSVVYAAFGSEVKLTAEQLQRIALGLEASELPFIWAFRAPPDAGDGDGLPGGFKERVNGRGVVCRGWVPQVKFLAHASVGGFLTHAGWNSIAEGLANGVRLVLLPLMFEQGLNARQLAEKKVAVEVARDEDDGSFAANDIVDALRRVMVGEEGDEFGVKVKELAKVFGDDEVNDRYVRDFLKCLSEYKMQRQG
Question: For B6, which “Conversion after 45 hrs.” value [1] is on record?
Answer: 2.9%

Question: What about the “Reb D selectivity” value [1] of the same molecule?
Answer: Reb D Not detected

Question: And the “Steviol glycoside conversion … Reb A” value [2]?
Answer: 92.8 % area

Question: And the “Steviol glycoside conversion in reaction mixture, Reb D” value [2]?
Answer: 0.14 % area

Question: What about the “Steviol glycoside conversion in reaction mixture, Reb UNK (later identified as reb D2)” value [2] of the same molecule?
Answer: 7.0 % area

Question: What about the “Conversion RebA to RebD” value [2] of the same molecule?
Answer: Active
